Source: US12329806B2, “Compound for modulating rlr, tlr, oas and/or oncostatin m pathways, use thereof for preparing a medicine, composition, method for modulating said pathways and method of treatment” (Instituto Butantan, priority 2018, dated 2025)

Test system: Equine melanoma tumors
Test: RNA-Seq transcriptomic analysis (DEGs, EdgeR) of treated equine melanoma tumors excised 6 h and 12 h after injection
Assay type: in vivo, Equus caballus
Conditions: for SELE expression, average / SELE expression, median: RNA-Seq
Protocol: Equine melanoma tumors were used in experiments with the administration of the compound of the invention, for transcriptomic analysis at different points in time. This translational experiment was carried out at Sao Joaquim Farm (SP) and the samples were transported to the Instituto Butantan, in the city of Sao Paulo. The experiment was designed with non-treated control samples at 0 h (PBS) and the treated tumors were excised 6 h and 12 h after the injection of 1 mg of polypeptide per kg of tumor. For each time point, two tumors were removed from three different animals, producing six tumors per time point. All 18 cDNA libraries were prepared following Illumina's TruSeq® RNA Preparation Kit Kits v2 protocol, and then sequenced using HiSeq 1500 Illumina technology, generating 2×100 bp chain-specific paired readings. The raw sequencing readings had the contaminants removed with bowtie2 2.2.5, and then trimmomatic was used for quality control of the sequences, to cut and remove readings with regions of low complexity and enriched with homopolymers, poly-A/T/N tails, low quality adapter strings and bases, with the fastq-mcf 1.04.662 software. The readings were filtered if more than 90% of the readings correspond to regions of homopolymer or of low complexity. Subsequently, cut if the average quality score was less than 25 in a window size equal to 15. After cutting, all readings less than 40 bp were discarded.
Total RNA was isolated from cells grown with Trizol (Ambion, Life Technologies) and purified with a Mini RNAspin kit (GE Healthcare) according to the manufacturer's instructions, with prolonged treatment with DNase I for 1 h.
RNA quality was assessed with an Agilent 2100 Bioanalyzer RNA Pico assay. RNA was quantified using the Rib-Green Quant-iT and RNA reagent kit (Invitrogen, Life Technologies). The messenger RNA (mRNA) was isolated and used to prepare the complementary DNA (cDNA) libraries following the instructions of the TruSeq RNA Sample Prep Kit V2 (Illumina, San Diego, Calif.). Briefly, the mRNA was isolated with oligo-dT and purified. Then, the mRNA was fragmented by heating to 94° C. (4 min) in fragmentation buffer. The double-stranded cDNA was synthesized, repaired at the end and tail A. The sequencing adapters were then attached to the cDNA fragments, according to the manufacturer's protocol. The cDNA fragments were enriched after 15 rounds of PCR amplification. The quality control of the library was assessed by size distribution of the cDNA libraries measured using 2100 Bioanalyzer with DNA1000 assay (Agilent Technologies) and a StepOnePlus real-time PCR system from ABI were used to quantify the sample library before sequencing. The cDNA library was sequenced on the Illumina HiSeq 1500 System, in a final flow cell paired with Rapid in a 200 pair strategy of 2-101 bp pairing strategy.
The in-silico analysis of RNA-Seq comprises several quality steps and transcriptomic quantification algorithms that are understood in the present invention as “pipeline”. (FIG. 19). The quality check was performed using FastQC3. Hisat214 was used to align readings against the horse's reference genome (Equus caballus) (annotation version 89). To map and quantify transcriptions, the feature Counts was used, resulting in a table of genetic IDs versus samples with raw reading counts. Then, differentially expressed genes (DEGs) were calculated using the EdgeR package. Genes with less than one count per million (CPM) were filtered out. The DEGs were calculated by crossing the sample values of a) 6 h after treatment (6 h)×control (0 h); b) 12 h after treatment (12 h)×control; and also, c) 12 h×6 h. DEGs are defined as an absolute value of log 2 fold change between two groups (LFC)>1 and false discovery rate (FDR)<0.05. […]

[1] = RNA-seq median expression, 12 h

B1: Amblyomin-X: recombinant Kunitz type protein identified in a cDNA library of Amblyomma sculptum tick salivary glands (protein)
chain: MRQLAVLALVIFTGMCVESQSANSKAVCNLPKLAGDETCSNKTEIRWYYNGTACEAFIFKGCGGNDNNFDRVDDCQRLCEEQTHFHFESPKLICFKVQDYWILNDIMKKNLTGISLKSEEEDADSGEID
modifications: Amblyomin-X
notes: recombinant Kunitz type protein identified in a cDNA library of Amblyomma sculptum tick salivary glands
SELE expression, average (6 h after treatment): 7.15 CPM
SELE expression, median (6 h after treatment): 4.56 CPM
SELE expression, average (12 h after treatment): 4.85 CPM
SELE expression, median (12 h after treatment): 5.63 CPM
median2, gene ACTN1 (RNA-seq median expression, 6 h): 153.3001 CPM
median2, gene BCL3 (RNA-seq median expression, 6 h): 46.57 CPM
median2, gene BIRC3 (RNA-seq median expression, 6 h): 47.3192 CPM
median2, gene CAD (RNA-seq median expression, 6 h): 52.82 CPM
median2, gene CCL2 (RNA-seq median expression, 6 h): 171.527 CPM
median2, gene CDO1 (RNA-seq median expression, 6 h): 22.45 CPM
median2, gene CTSL (RNA-seq median expression, 6 h): 34.0817 CPM
median2, gene CXCL6 (RNA-seq median expression, 6 h): 6.189 CPM
median2, gene DDX58 (RNA-seq median expression, 6 h): 22.55 CPM
median2, gene F12 (RNA-seq median expression, 6 h): 4.891 CPM
median2, gene FOSL1 (RNA-seq median expression, 6 h): 14.18 CPM
median2, gene FSCN1 (RNA-seq median expression, 6 h): 97.19 CPM
median2, gene HMOX1 (RNA-seq median expression, 6 h): 99.11 CPM
median2, gene HSPA6 (RNA-seq median expression, 6 h): 15.93 CPM
median2, gene IFI35 (RNA-seq median expression, 6 h): 48.07 CPM
median2, gene IFIH1 (RNA-seq median expression, 6 h): 13.29 CPM
median2, gene IFIT1 (RNA-seq median expression, 6 h): 28.13 CPM
median2, gene IL1B (RNA-seq median expression, 6 h): 20.23 CPM
median2, gene IL1RN (RNA-seq median expression, 6 h): 120.3935 CPM
median2, gene IL13RA1 (RNA-seq median expression, 6 h): 29.3 CPM
median2, gene IRF9 (RNA-seq median expression, 6 h): 72.39 CPM
median2, gene ITGA1 (RNA-seq median expression, 6 h): 7.06 CPM
median2, gene MYH1 (RNA-seq median expression, 6 h): 0 CPM
median2, gene MYH3 (RNA-seq median expression, 6 h): 1.418 CPM
median2, gene MYL2 (RNA-seq median expression, 6 h): 0 CPM
median2, gene MYLPF (RNA-seq median expression, 6 h): 1.314 CPM
median2, gene NTNG1 (RNA-seq median expression, 6 h): 1.059 CPM
median2, gene OAS2 (RNA-seq median expression, 6 h): 34.26 CPM
median2, gene PARP9 (RNA-seq median expression, 6 h): 16.34 CPM
median2, gene PER1 (RNA-seq median expression, 6 h): 32.08 CPM
median2, gene PIK3R6 (RNA-seq median expression, 6 h): 5.162 CPM
median2, gene RUNX1 (RNA-seq median expression, 6 h): 8.949 CPM
median2, gene SAA1 (RNA-seq median expression, 6 h): 7.68 CPM
median2, gene SELP (RNA-seq median expression, 6 h): 22.34 CPM
median2, gene SLPI (RNA-seq median expression, 6 h): 230.2294 CPM
median2, gene SOCS3 (RNA-seq median expression, 6 h): 12.21 CPM
median2, gene STAT1 (RNA-seq median expression, 6 h): 76.48 CPM
median2, gene TAT (RNA-seq median expression, 6 h): 1.235 CPM
median2, gene TEAD4 (RNA-seq median expression, 6 h): 21.64 CPM
median2, gene THBS1 (RNA-seq median expression, 6 h): 43.5 CPM
median2, gene TLR2 (RNA-seq median expression, 6 h): 59.58 CPM
median2, gene TREM1 (RNA-seq median expression, 6 h): 31.36 CPM
median3, gene ACTN1 [1]: 165.3412 CPM
median3, gene BCL3 [1]: 39.97 CPM
median3, gene BIRC3 [1]: 47.38 CPM
median3, gene CAD [1]: 50.34 CPM
median3, gene CCL2 [1]: 418.8519 CPM
median3, gene CDO1 [1]: 12.71 CPM
median3, gene CTSL [1]: 33.8889 CPM
median3, gene CXCL6 [1]: 1.108 CPM
median3, gene DDX58 [1]: 31.9 CPM
median3, gene F12 [1]: 8.671 CPM
median3, gene FOSL1 [1]: 11.46 CPM
median3, gene FSCN1 [1]: 152.3466 CPM
median3, gene HMOX1 [1]: 105.6427 CPM
median3, gene HSPA6 [1]: 53.79 CPM
median3, gene IFI35 [1]: 66.19 CPM
median3, gene IFIH1 [1]: 27.95 CPM
median3, gene IFIT1 [1]: 34.11 CPM
median3, gene IL1B [1]: 10.07 CPM
median3, gene IL1RN [1]: 118.3058 CPM
median3, gene IL13RA1 [1]: 23.98 CPM
median3, gene IRF9 [1]: 85.24 CPM
median3, gene ITGA1 [1]: 6.155 CPM
median3, gene MYH1 [1]: 0 CPM
median3, gene MYH3 [1]: 1.817 CPM
median3, gene MYL2 [1]: 0 CPM
median3, gene MYLPF [1]: 1.629 CPM
median3, gene NTNG1 [1]: 0.744 CPM
median3, gene OAS2 [1]: 82.84 CPM
median3, gene PARP9 [1]: 18.56 CPM
median3, gene PER1 [1]: 39.99 CPM
median3, gene PIK3R6 [1]: 4.433 CPM
median3, gene RUNX1 [1]: 9.266 CPM
median3, gene SAA1 [1]: 11.7 CPM
median3, gene SELP [1]: 20.58 CPM
median3, gene SLPI [1]: 620.7695 CPM
median3, gene SOCS3 [1]: 11.57 CPM
median3, gene STAT1 [1]: 83.64 CPM
median3, gene TAT [1]: 9.52 CPM
median3, gene TEAD4 [1]: 39.12 CPM
median3, gene THBS1 [1]: 31.32 CPM
median3, gene TLR2 [1]: 93.64 CPM
median3, gene TREM1 [1]: 24.25 CPM
logFC6, gene ACTN1 (RNA-seq, 6 h after treatment): 1.003
logFC6, gene BCL3 (RNA-seq, 6 h after treatment): 1.936
logFC6, gene BIRC3 (RNA-seq, 6 h after treatment): 1.275
logFC6, gene CAD (RNA-seq, 6 h after treatment): 1.227
logFC6, gene CCL2 (RNA-seq, 6 h after treatment): 2.79
logFC6, gene CDO1 (RNA-seq, 6 h after treatment): −1.785
logFC6, gene CTSL (RNA-seq, 6 h after treatment): 1.376
logFC6, gene CXCL6 (RNA-seq, 6 h after treatment): 5.945
logFC6, gene DDX58 (RNA-seq, 6 h after treatment): 1.434
logFC6, gene F12 (RNA-seq, 6 h after treatment): 2.559
logFC6, gene FOSL1 (RNA-seq, 6 h after treatment): 4.578
logFC6, gene FSCN1 (RNA-seq, 6 h after treatment): 1.457
logFC6, gene HMOX1 (RNA-seq, 6 h after treatment): 1.443
logFC6, gene HSPA6 (RNA-seq, 6 h after treatment): 5.376
logFC6, gene IFI35 (RNA-seq, 6 h after treatment): 1.513
